Assay results from article PMC5738273 (Journal of molecular biology, 2017).

B1: wild-type HdeA (natural protein, Escherichia coli, UniProt P0AES9 22-110, looked up)
chain: ADAQKAADNKKPVNSWTCEDFLAVDESFQPTAVGFAEALNNKDKPEDAVLDVQGIATVTPAIVQACTQDKQANFKDKVKGEWDKIKKDM
B2: HdeA E37Q (natural protein, Escherichia coli, UniProt P0AES9 22-110, looked up)
chain: ADAQKAADNKKPVNSWTCEDFLAVDESFQPTAVGFAQALNNKDKPEDAVLDVQGIATVTPAIVQACTQDKQANFKDKVKGEWDKIKKDM

Assays:
MST [1] = biological target: the molecule itself; assay: MST
MST [2] = biological target: the molecule itself; assay: MST; remark: listed apart in the source
MST [3] = biological target: the molecule itself; assay: MST; remark: listed apart in the source
ITC = biological target: the molecule itself; assay: ITC
MST [4] = biological target: the molecule itself; assay: MST; remark: listed apart in the source

Protein | Kd (MST [1]) | Kd (MST [2]) | Kd (MST [3]) | Kd (ITC) | Kd (MST [4])
B1 | 1200 ± 200 nM | 750 ± 310 nM | 640 ± 170 nM | 64000 ± 8000 nM | 
B2 |  |  | 550 ± 100 nM |  | 490 ± 100 nM
